{
  "source": "the supplement of paper PMC10567573",
  "parents": {"B1": {"name": "SNURF (parent)", "chain": "QVPVVDFQAELRQAFLAETPRGG"}},
  "data": [
    {"variants_of": "B1", "test": "protein stability index of a GFP-peptide fusion (GPS, HEK-293T) (PSI 1-6); higher = more stable", "settings": "c terminus: native", "values": [
      {"variant": "QVPVVDFQAELRQAFLAETPRVG", "note": "[G22V]", "protein stability index": 3.34},
      {"variant": "QVPVVDFQAELRQAFLAETPREG", "note": "[G22E]", "protein stability index": 3.26},
      {"variant": "QVPVVDFQAELRQAFLAETPRFG", "note": "[G22F]", "protein stability index": 2.29},
      {"variant": "QVPVVDFQAELRQAFLAETPRYG", "note": "[G22Y]", "protein stability index": 2.51},
      {"variant": "QVPVVDFQAELRQAFLAETPRCG", "note": "[G22C]", "protein stability index": 1.99},
      {"variant": "QVPVVDFQAELRQAFLAETPRSG", "note": "[G22S]", "protein stability index": 1.94},
      {"variant": "QVPVVDFQAELRQAFLAETPRMG", "note": "[G22M]", "protein stability index": 1.95},
      {"variant": "QVPVVDFQAELRQAFLAETPRIG", "note": "[G22I]", "protein stability index": 2.95},
      {"variant": "QVPVVDFQAELRQAFLAETPRKG", "note": "[G22K]", "protein stability index": 2.04},
      {"variant": "QVPVVDFQAELRQAFLAETPRHG", "note": "[G22H]", "protein stability index": 2.79},
      {"variant": "QVPVVDFQAELRQAFLAETPRRG", "note": "[G22R]", "protein stability index": 2.73},
      {"variant": "QVPVVDFQAELRQAFLAETPRTG", "note": "[G22T]", "protein stability index": 2.57},
      {"variant": "QVPVVDFQAELRQAFLAETPRLG", "note": "[G22L]", "protein stability index": 2.66},
      {"variant": "QVPVVDFQAELRQAFLAETPRDG", "note": "[G22D]", "protein stability index": 4.09},
      {"variant": "QVPVVDFQAELRQAFLAETPRNG", "note": "[G22N]", "protein stability index": 2.5},
      {"variant": "QVPVVDFQAELRMAFLAETPRGG", "note": "[Q13M]", "protein stability index": 2.42},
      {"variant": "QVPVVDFQAELRYAFLAETPRGG", "note": "[Q13Y]", "protein stability index": 2.73},
      {"variant": "QVPVVDFQAELRGAFLAETPRGG", "note": "[Q13G]", "protein stability index": 4.32},
      {"variant": "QVPVVDFQAELRAAFLAETPRGG", "note": "[Q13A]", "protein stability index": 2.68},
      {"variant": "QVPVVDFQAELRDAFLAETPRGG", "note": "[Q13D]", "protein stability index": 2.15},
      {"variant": "QVPVVDFQAELRSAFLAETPRGG", "note": "[Q13S]", "protein stability index": 3.53},
      {"variant": "QVPVVDFQAELRCAFLAETPRGG", "note": "[Q13C]", "protein stability index": 1.71},
      {"variant": "QVPVVDFQAELRQAFLAETKRGG", "note": "[P20K]", "protein stability index": 2.19},
      {"variant": "QVPVVDFQAELRQAFLAETARGG", "note": "[P20A]", "protein stability index": 3},
      {"variant": "QVPVVDFQAELRQAFLAETIRGG", "note": "[P20I]", "protein stability index": 3.38},
      {"variant": "QVPVVDFQAELRQAFLAETFRGG", "note": "[P20F]", "protein stability index": 2.27},
      {"variant": "QVPVVDFQAELRQAFLAETYRGG", "note": "[P20Y]", "protein stability index": 3.23},
      {"variant": "QVPVVDFQAELRQAFLAETCRGG", "note": "[P20C]", "protein stability index": 1.59},
      {"variant": "QVPVVDFQAELRQAFLAETWRGG", "note": "[P20W]", "protein stability index": 3.74},
      {"variant": "QVPVVDWQAELRQAFLAETPRGG", "note": "[F7W]", "protein stability index": 2.9},
      {"variant": "QVPVVDSQAELRQAFLAETPRGG", "note": "[F7S]", "protein stability index": 3.5},
      {"variant": "QVPVVDTQAELRQAFLAETPRGG", "note": "[F7T]", "protein stability index": 4.49},
      {"variant": "QVPVVDFQAFLRQAFLAETPRGG", "note": "[E10F]", "protein stability index": 4},
      {"variant": "QVPVVDFQAALRQAFLAETPRGG", "note": "[E10A]", "protein stability index": 1.34},
      {"variant": "QVPVVDFQAMLRQAFLAETPRGG", "note": "[E10M]", "protein stability index": 3.19},
      {"variant": "QVPVVDFQAPLRQAFLAETPRGG", "note": "[E10P]", "protein stability index": 2.93},
      {"variant": "QVPVVDFQADLRQAFLAETPRGG", "note": "[E10D]", "protein stability index": 2.15},
      {"variant": "QVPVVDFQAKLRQAFLAETPRGG", "note": "[E10K]", "protein stability index": 2.48},
      {"variant": "QVPVVDFQAQLRQAFLAETPRGG", "note": "[E10Q]", "protein stability index": 2.59},
      {"variant": "QVPVVDFQDELRQAFLAETPRGG", "note": "[A9D]", "protein stability index": 2.47},
      {"variant": "QVPVVDFQAELRQAFLASTPRGG", "note": "[E18S]", "protein stability index": 2.02},
      {"variant": "QVPVVDFQAELRQAFLAPTPRGG", "note": "[E18P]", "protein stability index": 3.59},
      {"variant": "QVPVVDFQAELRQAFLAFTPRGG", "note": "[E18F]", "protein stability index": 1.67},
      {"variant": "QVPVVDFQAELRQAFLACTPRGG", "note": "[E18C]", "protein stability index": 3.41},
      {"variant": "QVPVVDFQAEIRQAFLAETPRGG", "note": "[L11I]", "protein stability index": 2.03},
      {"variant": "QVPVVDFQAEDRQAFLAETPRGG", "note": "[L11D]", "protein stability index": 2.77},
      {"variant": "QVPVVDFQAEKRQAFLAETPRGG", "note": "[L11K]", "protein stability index": 4.47},
      {"variant": "QVPVVDFQAERRQAFLAETPRGG", "note": "[L11R]", "protein stability index": 3.83},
      {"variant": "QVPVVDFQAEPRQAFLAETPRGG", "note": "[L11P]", "protein stability index": 3.34},
      {"variant": "QVPVVDFQAEFRQAFLAETPRGG", "note": "[L11F]", "protein stability index": 3.51},
      {"variant": "QVPVVDFQAESRQAFLAETPRGG", "note": "[L11S]", "protein stability index": 2.27},
      {"variant": "QVPVVDFQAEARQAFLAETPRGG", "note": "[L11A]", "protein stability index": 3.6},
      {"variant": "QVVVVDFQAELRQAFLAETPRGG", "note": "[P3V]", "protein stability index": 3.01},
      {"variant": "QVDVVDFQAELRQAFLAETPRGG", "note": "[P3D]", "protein stability index": 3.02},
      {"variant": "QVQVVDFQAELRQAFLAETPRGG", "note": "[P3Q]", "protein stability index": 4.82},
      {"variant": "QVPVVDFQAELRQAFLKETPRGG", "note": "[A17K]", "protein stability index": 3.45},
      {"variant": "QVPVVDFQAELRQAFLSETPRGG", "note": "[A17S]", "protein stability index": 2},
      {"variant": "QVPVVDFQAELRQAFLIETPRGG", "note": "[A17I]", "protein stability index": 3.76},
      {"variant": "QVPVHDFQAELRQAFLAETPRGG", "note": "[V5H]", "protein stability index": 3.52},
      {"variant": "QVPVADFQAELRQAFLAETPRGG", "note": "[V5A]", "protein stability index": 2.08},
      {"variant": "QVPVFDFQAELRQAFLAETPRGG", "note": "[V5F]", "protein stability index": 2.39},
      {"variant": "QVPVTDFQAELRQAFLAETPRGG", "note": "[V5T]", "protein stability index": 2.34},
      {"variant": "QVPVLDFQAELRQAFLAETPRGG", "note": "[V5L]", "protein stability index": 3.11},
      {"variant": "QVPVSDFQAELRQAFLAETPRGG", "note": "[V5S]", "protein stability index": 4.05},
      {"variant": "QVPVWDFQAELRQAFLAETPRGG", "note": "[V5W]", "protein stability index": 3.5},
      {"variant": "QVPVDDFQAELRQAFLAETPRGG", "note": "[V5D]", "protein stability index": 1.7},
      {"variant": "QVPVIDFQAELRQAFLAETPRGG", "note": "[V5I]", "protein stability index": 4.13},
      {"variant": "SVPVVDFQAELRQAFLAETPRGG", "note": "[Q1S]", "protein stability index": 2.31},
      {"variant": "NVPVVDFQAELRQAFLAETPRGG", "note": "[Q1N]", "protein stability index": 2.49},
      {"variant": "TVPVVDFQAELRQAFLAETPRGG", "note": "[Q1T]", "protein stability index": 3.88},
      {"variant": "QVPVVDFQAELRQAFPAETPRGG", "note": "[L16P]", "protein stability index": 3.02},
      {"variant": "QVPVVDFQAELRQAFFAETPRGG", "note": "[L16F]", "protein stability index": 2.03},
      {"variant": "QVPVVDFQAELRQAFWAETPRGG", "note": "[L16W]", "protein stability index": 1.96},
      {"variant": "QVPVVDFQAELRQAFAAETPRGG", "note": "[L16A]", "protein stability index": 2.42},
      {"variant": "QVPVVDFQAELRQAFYAETPRGG", "note": "[L16Y]", "protein stability index": 3.57},
      {"variant": "QVPVVDFQAELRQAFHAETPRGG", "note": "[L16H]", "protein stability index": 2.13},
      {"variant": "QVPVVDFQAELRQAFLAEAPRGG", "note": "[T19A]", "protein stability index": 3.59},
      {"variant": "QVPVVDFQAELRQAFLAECPRGG", "note": "[T19C]", "protein stability index": 3.31},
      {"variant": "QVPVVDFQAELRQAFLAERPRGG", "note": "[T19R]", "protein stability index": 1.63},
      {"variant": "QVPVVDFQAELRQAFLAEKPRGG", "note": "[T19K]", "protein stability index": 3.17},
      {"variant": "QVPVVDFQAELRQAFLAEFPRGG", "note": "[T19F]", "protein stability index": 2.29},
      {"variant": "QVPVVDFQAELRQAFLAETPAGG", "note": "[R21A]", "protein stability index": 4.22},
      {"variant": "QVPVVDFQAELRQAFLAETPLGG", "note": "[R21L]", "protein stability index": 2.66},
      {"variant": "QVPVVDFQAELRQAFLAETPKGG", "note": "[R21K]", "protein stability index": 1.78},
      {"variant": "QVPVVDFQAELRQAFLAETPPGG", "note": "[R21P]", "protein stability index": 3.47},
      {"variant": "QVPVVDFQAELRQAFLAETPNGG", "note": "[R21N]", "protein stability index": 2.15},
      {"variant": "QVPVVDFQAELRQLFLAETPRGG", "note": "[A14L]", "protein stability index": 3.5},
      {"variant": "QVPVVDFQAELRQFFLAETPRGG", "note": "[A14F]", "protein stability index": 2.58},
      {"variant": "QVPVVDFQAELRQKFLAETPRGG", "note": "[A14K]", "protein stability index": 3.05},
      {"variant": "QVPVVDFQAELRQPFLAETPRGG", "note": "[A14P]", "protein stability index": 2.12},
      {"variant": "QVPVVDFQAELRQEFLAETPRGG", "note": "[A14E]", "protein stability index": 3.09},
      {"variant": "QVPVVDFQAELRQDFLAETPRGG", "note": "[A14D]", "protein stability index": 2.99},
      {"variant": "QVPVVDFQAELRQHFLAETPRGG", "note": "[A14H]", "protein stability index": 2.3},
      {"variant": "QVPVVCFQAELRQAFLAETPRGG", "note": "[D6C]", "protein stability index": 4.03},
      {"variant": "QVPVVNFQAELRQAFLAETPRGG", "note": "[D6N]", "protein stability index": 3.2},
      {"variant": "QVPVVEFQAELRQAFLAETPRGG", "note": "[D6E]", "protein stability index": 4.69},
      {"variant": "QVPVVRFQAELRQAFLAETPRGG", "note": "[D6R]", "protein stability index": 2.21}
    ]}
  ]
}
